Measurements from PMC8217331 (Neuron, 2021).

B1: Rapsn-EGFP, purified (natural protein, UniProt P12672 1-412, looked up)
chain: MGQDQTKQQIEKGLQLYQSNQTEKALQVWMKVLEKGSDLVGRFRVLGCLVTAHSEMGRYKEMLKFAVVQIDTARGLEDADFLLESYLNLARSNEKLCEFHKTISYCKTCLGLPGTRAGAQLGGQVSLSMGNAFLGLSLFQKALESFEKALRYAHNNDDTMLECRVCCSLGSFYAQVKDYEKALFFPCKAAELVNDYGKGWSLKYRAMSQYHMAVAYRLLGHLGSAMECCEESMKIALQHGDRPLQALCLLCFADIHRSRGDLETAFPRYDSAMSIMTEIGNRLGQVHVLLGVAKCWMARKVQDKALDAIEKAQDLAEEVGNKLSQLKLHCLSESIYRSKGLQRELRTHVVRFHECVEETELYCGLCGESIGERNSRLQALPCSHIFHLRCLQNNGTRSCPNCRRSSMKPGFV

How the values were obtained:
Rapsn-EGFP, purified = molecular target: B1; assay: co-condensation into droplets
[1] = molecular target: α-actinin2 (aa 1M-894L), purified ( (the printed UniProt entry …, UniProt Q9JI91 1-894, CF555 label (Mix-n-Stain CF555))); assay: co-condensation into droplets
Chain of α-actinin2 (aa 1M-894L), purified ( (Q9JI91 whole entry): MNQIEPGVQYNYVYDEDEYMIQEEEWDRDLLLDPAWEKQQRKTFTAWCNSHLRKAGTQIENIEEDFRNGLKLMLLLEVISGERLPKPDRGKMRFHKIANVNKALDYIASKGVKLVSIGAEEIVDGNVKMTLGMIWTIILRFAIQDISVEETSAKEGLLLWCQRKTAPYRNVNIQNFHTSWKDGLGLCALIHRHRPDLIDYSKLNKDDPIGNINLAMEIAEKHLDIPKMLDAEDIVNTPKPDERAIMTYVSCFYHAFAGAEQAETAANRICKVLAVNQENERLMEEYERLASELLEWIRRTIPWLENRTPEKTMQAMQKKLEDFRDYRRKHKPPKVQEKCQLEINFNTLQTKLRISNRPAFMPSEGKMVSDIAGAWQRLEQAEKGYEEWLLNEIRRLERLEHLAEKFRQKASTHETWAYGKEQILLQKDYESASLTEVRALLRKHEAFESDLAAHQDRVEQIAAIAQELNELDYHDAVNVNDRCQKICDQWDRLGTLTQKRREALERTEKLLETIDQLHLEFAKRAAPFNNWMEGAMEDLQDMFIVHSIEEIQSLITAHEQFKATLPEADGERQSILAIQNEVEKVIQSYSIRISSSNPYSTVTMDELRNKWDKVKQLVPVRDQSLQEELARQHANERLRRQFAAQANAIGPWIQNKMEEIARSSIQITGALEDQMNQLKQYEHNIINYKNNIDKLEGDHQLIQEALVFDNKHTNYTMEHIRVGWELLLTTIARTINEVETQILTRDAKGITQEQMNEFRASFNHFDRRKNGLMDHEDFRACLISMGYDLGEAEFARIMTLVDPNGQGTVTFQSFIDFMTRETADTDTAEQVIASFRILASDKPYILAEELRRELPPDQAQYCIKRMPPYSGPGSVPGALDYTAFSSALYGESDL

Row | Binder | binding result (Rapsn-EGFP, purified) | binding result [1]
1 | GST-MACF1 (aa 1M-293I) (domain or fragment, UniProt Q9QXZ0 1-293, looked up, CF555 label (Mix-n-Stain CF555)) MSSSDEETLSERSCRSERSCRSERSYRSERSGSLSPCPPGDTLPWNLPLHEQKKRKSQDSVLDPAERAVVRVADERDRVQKKTFTKWVNKHLMKVRKHINDLYEDLRDGHNLISLLEVLSGIKLPREKGRMRFHRLQNVQIALDFLKQRQVKLVNIRNDDITDGNPKLTLGLIWTIILHFQISDIYISGESGDMSAKEKLLLWTQKVTAGYTGVKCTNFSSCWSDGKMFNALIHRYRPDLVDMERVQVQSNRENLEQAFEVAERLGVTRLLDAEDVDVPSPDEKSVITYVSSI | binds | 
2 | GST-β-dystroglycan (aa 773Y-893P) (domain or fragment, UniProt Q62165 773-893, looked up, CF555 label (Mix-n-Stain CF555)) YRKKRKGKLTLEDQATFIKKGVPIIFADELDDSKPPPSSSMPLILQEEKAPLPPPEYPNQSMPETTPLNQDTVGEYTPLRDEDPNAPPYQPPPPFTAPMEGKGSRPKNMTPYRSPPPYVPP | binds | 
3 | GST-AChR-β (loop between 3rd and 4th transmembrane domains) (domain or fragment, UniProt P09690 333-469, looked up, CF555 label (Mix-n-Stain CF555)) HHRSPHTHQMPFWVRQIFIHKLPPYLGLKRPKPERDQLPEPHHSLSPRSGWGRGTDEYFIRKPPSDFLFPKLNRFQPESSAPDLRRFIDGPTRAVGLPQELREVISSISYMARQLQEQEDHDALKEDWQFVAMVVDR | binds | 
4 | B1 |  | binds
5 | GST-AChR-α (loop between 3rd and 4th transmembrane domains) (domain or fragment, UniProt P04756 317-428, looked up, CF555 label (Mix-n-Stain CF555)) NTHHRSPSTHIMPEWVRKVFIDTIPNIMFFSTMKRPSRDKQEKRIFTEDIDISDISGKPGPPPMGFHSPLIKHPEVKSAIEGVKYIAETMKSDQESNNAAEEWKYVAMVMDH | binds | 
